B1: Arrestin domain-containing protein 3 (Homo sapiens), Q96B67 (parent)
chain: MVLGKVKSLTISFDCLNDSNVPVYSSGDTVSGRVNLEVTGEIRVKSLKIHARGHAKVRWTESRNAGSNTAYTQNYTEEVEYFNHKDILIGHERDDDNSEEGFHTIHSGRHEYAFSFELPQTPLATSFEGRHGSVRYWVKAELHRPWLLPVKLKKEFTVFEHIDINTPSLLSPQAGTKEKTLCCWFCTSGPISLSAKIERKGYTPGESIQIFAEIENCSSRMVVPKAAIYQTQAFYAKGKMKEVKQLVANLRGESLSSGKTETWNGKLLKIPPVSPSILDCSIIRVEYSLMVYVDIPGAMDLFLNLPLVIGTIPLHPFGSRTSSVSSQCSMNMNWLSLSLPERPEAPPSYAEVVTEEQRRNNLAPVSACDDFERALQGPLFAYIQEFRFLPPPLYSEIDPNPDQSADDRPSCPSR

What was measured:
[1] = variants of: B1; settings: with nedd4_human NEDD4, P46934
Chain of nedd4_human NEDD4, P46934 (P46934 whole entry): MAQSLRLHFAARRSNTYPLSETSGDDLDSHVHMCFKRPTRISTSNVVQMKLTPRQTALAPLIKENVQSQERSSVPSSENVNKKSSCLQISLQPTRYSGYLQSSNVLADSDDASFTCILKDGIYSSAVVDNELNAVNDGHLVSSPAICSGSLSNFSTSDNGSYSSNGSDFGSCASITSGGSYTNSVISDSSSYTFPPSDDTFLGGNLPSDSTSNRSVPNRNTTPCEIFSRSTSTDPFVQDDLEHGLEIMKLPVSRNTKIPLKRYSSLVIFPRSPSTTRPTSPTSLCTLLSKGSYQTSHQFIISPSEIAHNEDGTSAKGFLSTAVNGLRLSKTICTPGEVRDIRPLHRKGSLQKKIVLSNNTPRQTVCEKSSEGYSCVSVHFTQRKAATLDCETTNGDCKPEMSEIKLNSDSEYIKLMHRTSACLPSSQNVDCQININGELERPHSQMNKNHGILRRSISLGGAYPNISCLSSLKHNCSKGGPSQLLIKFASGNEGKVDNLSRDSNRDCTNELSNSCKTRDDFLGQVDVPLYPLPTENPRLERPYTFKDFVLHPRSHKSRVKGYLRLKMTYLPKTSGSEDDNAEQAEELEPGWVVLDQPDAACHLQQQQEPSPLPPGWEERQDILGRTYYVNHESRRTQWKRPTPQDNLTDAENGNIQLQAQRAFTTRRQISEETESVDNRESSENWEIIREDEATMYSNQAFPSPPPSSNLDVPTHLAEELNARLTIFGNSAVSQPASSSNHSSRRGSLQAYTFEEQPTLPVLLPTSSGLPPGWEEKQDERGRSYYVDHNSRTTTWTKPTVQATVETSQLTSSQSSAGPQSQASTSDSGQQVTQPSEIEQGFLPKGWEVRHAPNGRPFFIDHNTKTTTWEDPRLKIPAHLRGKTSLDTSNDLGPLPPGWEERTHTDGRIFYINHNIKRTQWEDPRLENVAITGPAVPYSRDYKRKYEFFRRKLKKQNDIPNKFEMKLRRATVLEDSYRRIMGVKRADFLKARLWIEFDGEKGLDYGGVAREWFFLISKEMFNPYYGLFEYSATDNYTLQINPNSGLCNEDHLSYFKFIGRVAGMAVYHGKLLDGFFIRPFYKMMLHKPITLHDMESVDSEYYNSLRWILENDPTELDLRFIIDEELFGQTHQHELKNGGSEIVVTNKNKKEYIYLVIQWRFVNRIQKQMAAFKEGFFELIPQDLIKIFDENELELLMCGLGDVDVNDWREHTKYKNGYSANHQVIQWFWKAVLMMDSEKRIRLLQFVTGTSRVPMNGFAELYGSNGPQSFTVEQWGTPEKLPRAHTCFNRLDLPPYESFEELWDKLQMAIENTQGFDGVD

hgs_human HGS, O14964 = variants of: B1; settings: with hgs_human HGS
Chain of hgs_human HGS, O14964 (O14964 whole entry): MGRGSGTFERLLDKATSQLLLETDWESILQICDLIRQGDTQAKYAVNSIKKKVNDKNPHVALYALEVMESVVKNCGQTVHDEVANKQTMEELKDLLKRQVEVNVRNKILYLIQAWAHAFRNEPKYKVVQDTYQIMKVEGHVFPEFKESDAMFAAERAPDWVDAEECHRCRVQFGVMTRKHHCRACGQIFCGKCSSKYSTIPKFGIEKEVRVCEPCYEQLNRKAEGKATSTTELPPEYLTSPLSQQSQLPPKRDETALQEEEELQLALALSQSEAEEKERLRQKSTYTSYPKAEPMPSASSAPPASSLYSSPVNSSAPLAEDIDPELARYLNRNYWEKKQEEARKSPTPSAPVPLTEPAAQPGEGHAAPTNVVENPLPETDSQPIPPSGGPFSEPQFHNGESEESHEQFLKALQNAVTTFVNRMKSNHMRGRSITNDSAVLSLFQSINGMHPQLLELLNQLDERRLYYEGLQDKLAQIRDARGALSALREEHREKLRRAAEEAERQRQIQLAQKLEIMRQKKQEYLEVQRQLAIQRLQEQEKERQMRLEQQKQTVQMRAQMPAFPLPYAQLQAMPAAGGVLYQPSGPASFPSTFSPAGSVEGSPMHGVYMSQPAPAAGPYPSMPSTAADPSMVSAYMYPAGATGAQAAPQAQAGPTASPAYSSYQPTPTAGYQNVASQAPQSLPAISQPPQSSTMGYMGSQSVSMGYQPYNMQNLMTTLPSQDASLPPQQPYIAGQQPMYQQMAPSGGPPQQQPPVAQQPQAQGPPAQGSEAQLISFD

[2] = variants of: B1; settings: with adrb2_human ADRB2, P07550
[3] = variants of: B1; settings: with adrb2_human ADRB2, P07550; remark: listed apart in the source

Row | effect of a mutation on the interaction [1] | effect of a mutation on the interaction (hgs_human HGS, O14964) | effect of a mutation on the interaction [2] | effect of a mutation on the interaction [3] | Variant
1 | disrupting interaction | disrupting interaction | decreasing interaction | disrupting interaction | MVLGKVKSLTISFDCLNDSNVPVYSSGDTVSGRVNLEVTGEIRVKSLKIHARGHAKVRWTESRNAGSNTAYTQNYTEEVEYFNHKDILIGHERDDDNSEEGFHTIHSGRHEYAFSFELPQTPLATSFEGRHGSVRYWVKAELHRPWLLPVKLKKEFTVFEHIDINTPSLLSPQAGTKEKTLCCWFCTSGPISLSAKIERKGYTPGESIQIFAEIENCSSRMVVPKAAIYQTQAFYAKGKMKEVKQLVANLRGESLSSGKTETWNGKLLKIPPVSPSILDCSIIRVEYSLMVYVDIPGAMDLFLNLPLVIGTIPLHPFGSRTSSVSSQCSMNMNWLSLSLPERPEAPPSYAEVVTEEQRRNNLAPVSACDDFERALQGPLFAYIQEFRFLPAPLYSEIDPNPDQSADDRPSCPSR [P391A]
2 | disrupting interaction | disrupting interaction | decreasing interaction | disrupting interaction | MVLGKVKSLTISFDCLNDSNVPVYSSGDTVSGRVNLEVTGEIRVKSLKIHARGHAKVRWTESRNAGSNTAYTQNYTEEVEYFNHKDILIGHERDDDNSEEGFHTIHSGRHEYAFSFELPQTPLATSFEGRHGSVRYWVKAELHRPWLLPVKLKKEFTVFEHIDINTPSLLSPQAGTKEKTLCCWFCTSGPISLSAKIERKGYTPGESIQIFAEIENCSSRMVVPKAAIYQTQAFYAKGKMKEVKQLVANLRGESLSSGKTETWNGKLLKIPPVSPSILDCSIIRVEYSLMVYVDIPGAMDLFLNLPLVIGTIPLHPFGSRTSSVSSQCSMNMNWLSLSLPERPEAPPSAAEVVTEEQRRNNLAPVSACDDFERALQGPLFAYIQEFRFLPPPLYSEIDPNPDQSADDRPSCPSR [Y349A]
3 | disrupting interaction | disrupting interaction | decreasing interaction | disrupting interaction | MVLGKVKSLTISFDCLNDSNVPVYSSGDTVSGRVNLEVTGEIRVKSLKIHARGHAKVRWTESRNAGSNTAYTQNYTEEVEYFNHKDILIGHERDDDNSEEGFHTIHSGRHEYAFSFELPQTPLATSFEGRHGSVRYWVKAELHRPWLLPVKLKKEFTVFEHIDINTPSLLSPQAGTKEKTLCCWFCTSGPISLSAKIERKGYTPGESIQIFAEIENCSSRMVVPKAAIYQTQAFYAKGKMKEVKQLVANLRGESLSSGKTETWNGKLLKIPPVSPSILDCSIIRVEYSLMVYVDIPGAMDLFLNLPLVIGTIPLHPFGSRTSSVSSQCSMNMNWLSLSLPERPEAPPSYAEVVTEEQRRNNLAPVSACDDFERALQGPLFAYIQEFRFLPPALYSEIDPNPDQSADDRPSCPSR [P392A]
4 | disrupting interaction | disrupting interaction | decreasing interaction | disrupting interaction | MVLGKVKSLTISFDCLNDSNVPVYSSGDTVSGRVNLEVTGEIRVKSLKIHARGHAKVRWTESRNAGSNTAYTQNYTEEVEYFNHKDILIGHERDDDNSEEGFHTIHSGRHEYAFSFELPQTPLATSFEGRHGSVRYWVKAELHRPWLLPVKLKKEFTVFEHIDINTPSLLSPQAGTKEKTLCCWFCTSGPISLSAKIERKGYTPGESIQIFAEIENCSSRMVVPKAAIYQTQAFYAKGKMKEVKQLVANLRGESLSSGKTETWNGKLLKIPPVSPSILDCSIIRVEYSLMVYVDIPGAMDLFLNLPLVIGTIPLHPFGSRTSSVSSQCSMNMNWLSLSLPERPEAPASYAEVVTEEQRRNNLAPVSACDDFERALQGPLFAYIQEFRFLPPPLYSEIDPNPDQSADDRPSCPSR [P347A]

More lines, now with the values behind:

Row | Variant | effect of a mutation on the interaction [1] | effect of a mutation on the interaction (hgs_human HGS, O14964) | effect of a mutation on the interaction [2] | effect of a mutation on the interaction [3]
5 | MVLGKVKSLTISFDCLNDSNVPVYSSGDTVSGRVNLEVTGEIRVKSLKIHARGHAKVRWTESRNAGSNTAYTQNYTEEVEYFNHKDILIGHERDDDNSEEGFHTIHSGRHEYAFSFELPQTPLATSFEGRHGSVRYWVKAELHRPWLLPVKLKKEFTVFEHIDINTPSLLSPQAGTKEKTLCCWFCTSGPISLSAKIERKGYTPGESIQIFAEIENCSSRMVVPKAAIYQTQAFYAKGKMKEVKQLVANLRGESLSSGKTETWNGKLLKIPPVSPSILDCSIIRVEYSLMVYVDIPGAMDLFLNLPLVIGTIPLHPFGSRTSSVSSQCSMNMNWLSLSLPERPEAAPSYAEVVTEEQRRNNLAPVSACDDFERALQGPLFAYIQEFRFLPPPLYSEIDPNPDQSADDRPSCPSR [P346A] | disrupting interaction | disrupting interaction | decreasing interaction | disrupting interaction
6 | MVLGKVKSLTISFDCLNDSNVPVYSSGDTVSGRVNLEVTGEIRVKSLKIHARGHAKVRWTESRNAGSNTAYTQNYTEEVEYFNHKDILIGHERDDDNSEEGFHTIHSGRHEYAFSFELPQTPLATSFEGRHGSVRYWVKAELHRPWLLPVKLKKEFTVFEHIDINTPSLLSPQAGTKEKTLCCWFCTSGPISLSAKIERKGYTPGESIQIFAEIENCSSRMVVPKAAIYQTQAFYAKGKMKEVKQLVANLRGESLSSGKTETWNGKLLKIPPVSPSILDCSIIRVEYSLMVYVDIPGAMDLFLNLPLVIGTIPLHPFGSRTSSVSSQCSMNMNWLSLSLPERPEAPPSYAEVVTEEQRRNNLAPVSACDDFERALQGPLFAYIQEFRFLPPPLASEIDPNPDQSADDRPSCPSR [Y394A] | disrupting interaction | disrupting interaction | decreasing interaction | disrupting interaction
